Our source for the MFI values is patent US20150344583A1.

The test deals with human BCMA (huBCMA) on cells (human) (UniProt Q02223). Kind of test: FACS, H929 cells, negative control. (Flow cytometry measures light scatter and fluorescence of single cells or particles in a stream.)
Sequence of human BCMA (huBCMA) on cells (human) (Q02223 whole entry N81S): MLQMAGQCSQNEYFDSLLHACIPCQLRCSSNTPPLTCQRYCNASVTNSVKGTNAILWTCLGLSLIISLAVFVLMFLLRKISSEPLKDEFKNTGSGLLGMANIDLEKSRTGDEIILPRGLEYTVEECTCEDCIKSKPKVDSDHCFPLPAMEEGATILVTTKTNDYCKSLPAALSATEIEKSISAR

For hu IgG1 (antibody), the MFI came to 8 MFI.
